Data as given in patent publication US20230414709A1 (TRUSTEES OF COLUMBIA UNIVERSITY IN THE CITY OF NEW YORK, published 2023).
Substitutions are numbered along the chain they refer to.

B1: K3 NGAL mutant protein (ligand)
chain: QDSTSDLIPAPPLSSVPLQQNFQDNQFQGKWYVVGLAGNAILREDEDPQKMYATIYELKEDKSYNVTSVLFRDDGCDYWIRTFVPGCQPGEFTLGNIQSYPGLTSYLVRVVSTNYNQFAMVFFKKVSQNQEYFKITLYGRTKELTSELQENFIRFSKSLGLPENNIVFPVPIDQCIDG
notes: Mutant of human NGAL, made in E. coli as for the wild type (GST fusion vector); Runs as monomer and dimer on Western blot; also called K6 (i.e, K3); Mut1
B2: K3Cys protein (ligand)
chain: B1 chain with C87S
notes: only monomers seen; also called K3Cys NGAL; Mut2
B3: wild-type human NGAL (Neutrophil Gelatinase-Associated Lipocalin) (ligand)
chain: B1 chain with S15K, E46K, D73K, D74K, G75K, Q98K, F118H, Q130R, Q149K, N165H
B4: NGAL mutant B3 (ligand)
chain: B1 chain with S15K, D73K, D74K, G75K, Q98K, F118H, Q130R, Q149K
B5: NGAL mutant B4 (ligand)
chain: B1 chain with S15K, D73K, D74K, G75K, F118H, Q130R, Q149K, N165H
B6: NGAL mutant C1 (ligand)
chain: QDSTSDLIPAPPLSKVPLQQNFQDNQFQGKWYVVGLAGNAILREDKDPQTMYATIYELKEDKSYNVTSVLFQKKKCDYWIRTFVPGCQPGEFTLGNIKSYPGLTSYLVRVVSTNYNQHAMVFFKKVSQNQEYFKITLYGRTKELTSELQENFIRFSQSLGLPENHIVFPVPIDQCIDG
B7: NGAL mutant C3 (ligand)
chain: B6 chain with K15S, Q130R

Molecular target: T1, mouse megalin (mouse, UniProt A2ARV4 26-4660)
T1 sequence (A2ARV4 26-4660 limits assumed): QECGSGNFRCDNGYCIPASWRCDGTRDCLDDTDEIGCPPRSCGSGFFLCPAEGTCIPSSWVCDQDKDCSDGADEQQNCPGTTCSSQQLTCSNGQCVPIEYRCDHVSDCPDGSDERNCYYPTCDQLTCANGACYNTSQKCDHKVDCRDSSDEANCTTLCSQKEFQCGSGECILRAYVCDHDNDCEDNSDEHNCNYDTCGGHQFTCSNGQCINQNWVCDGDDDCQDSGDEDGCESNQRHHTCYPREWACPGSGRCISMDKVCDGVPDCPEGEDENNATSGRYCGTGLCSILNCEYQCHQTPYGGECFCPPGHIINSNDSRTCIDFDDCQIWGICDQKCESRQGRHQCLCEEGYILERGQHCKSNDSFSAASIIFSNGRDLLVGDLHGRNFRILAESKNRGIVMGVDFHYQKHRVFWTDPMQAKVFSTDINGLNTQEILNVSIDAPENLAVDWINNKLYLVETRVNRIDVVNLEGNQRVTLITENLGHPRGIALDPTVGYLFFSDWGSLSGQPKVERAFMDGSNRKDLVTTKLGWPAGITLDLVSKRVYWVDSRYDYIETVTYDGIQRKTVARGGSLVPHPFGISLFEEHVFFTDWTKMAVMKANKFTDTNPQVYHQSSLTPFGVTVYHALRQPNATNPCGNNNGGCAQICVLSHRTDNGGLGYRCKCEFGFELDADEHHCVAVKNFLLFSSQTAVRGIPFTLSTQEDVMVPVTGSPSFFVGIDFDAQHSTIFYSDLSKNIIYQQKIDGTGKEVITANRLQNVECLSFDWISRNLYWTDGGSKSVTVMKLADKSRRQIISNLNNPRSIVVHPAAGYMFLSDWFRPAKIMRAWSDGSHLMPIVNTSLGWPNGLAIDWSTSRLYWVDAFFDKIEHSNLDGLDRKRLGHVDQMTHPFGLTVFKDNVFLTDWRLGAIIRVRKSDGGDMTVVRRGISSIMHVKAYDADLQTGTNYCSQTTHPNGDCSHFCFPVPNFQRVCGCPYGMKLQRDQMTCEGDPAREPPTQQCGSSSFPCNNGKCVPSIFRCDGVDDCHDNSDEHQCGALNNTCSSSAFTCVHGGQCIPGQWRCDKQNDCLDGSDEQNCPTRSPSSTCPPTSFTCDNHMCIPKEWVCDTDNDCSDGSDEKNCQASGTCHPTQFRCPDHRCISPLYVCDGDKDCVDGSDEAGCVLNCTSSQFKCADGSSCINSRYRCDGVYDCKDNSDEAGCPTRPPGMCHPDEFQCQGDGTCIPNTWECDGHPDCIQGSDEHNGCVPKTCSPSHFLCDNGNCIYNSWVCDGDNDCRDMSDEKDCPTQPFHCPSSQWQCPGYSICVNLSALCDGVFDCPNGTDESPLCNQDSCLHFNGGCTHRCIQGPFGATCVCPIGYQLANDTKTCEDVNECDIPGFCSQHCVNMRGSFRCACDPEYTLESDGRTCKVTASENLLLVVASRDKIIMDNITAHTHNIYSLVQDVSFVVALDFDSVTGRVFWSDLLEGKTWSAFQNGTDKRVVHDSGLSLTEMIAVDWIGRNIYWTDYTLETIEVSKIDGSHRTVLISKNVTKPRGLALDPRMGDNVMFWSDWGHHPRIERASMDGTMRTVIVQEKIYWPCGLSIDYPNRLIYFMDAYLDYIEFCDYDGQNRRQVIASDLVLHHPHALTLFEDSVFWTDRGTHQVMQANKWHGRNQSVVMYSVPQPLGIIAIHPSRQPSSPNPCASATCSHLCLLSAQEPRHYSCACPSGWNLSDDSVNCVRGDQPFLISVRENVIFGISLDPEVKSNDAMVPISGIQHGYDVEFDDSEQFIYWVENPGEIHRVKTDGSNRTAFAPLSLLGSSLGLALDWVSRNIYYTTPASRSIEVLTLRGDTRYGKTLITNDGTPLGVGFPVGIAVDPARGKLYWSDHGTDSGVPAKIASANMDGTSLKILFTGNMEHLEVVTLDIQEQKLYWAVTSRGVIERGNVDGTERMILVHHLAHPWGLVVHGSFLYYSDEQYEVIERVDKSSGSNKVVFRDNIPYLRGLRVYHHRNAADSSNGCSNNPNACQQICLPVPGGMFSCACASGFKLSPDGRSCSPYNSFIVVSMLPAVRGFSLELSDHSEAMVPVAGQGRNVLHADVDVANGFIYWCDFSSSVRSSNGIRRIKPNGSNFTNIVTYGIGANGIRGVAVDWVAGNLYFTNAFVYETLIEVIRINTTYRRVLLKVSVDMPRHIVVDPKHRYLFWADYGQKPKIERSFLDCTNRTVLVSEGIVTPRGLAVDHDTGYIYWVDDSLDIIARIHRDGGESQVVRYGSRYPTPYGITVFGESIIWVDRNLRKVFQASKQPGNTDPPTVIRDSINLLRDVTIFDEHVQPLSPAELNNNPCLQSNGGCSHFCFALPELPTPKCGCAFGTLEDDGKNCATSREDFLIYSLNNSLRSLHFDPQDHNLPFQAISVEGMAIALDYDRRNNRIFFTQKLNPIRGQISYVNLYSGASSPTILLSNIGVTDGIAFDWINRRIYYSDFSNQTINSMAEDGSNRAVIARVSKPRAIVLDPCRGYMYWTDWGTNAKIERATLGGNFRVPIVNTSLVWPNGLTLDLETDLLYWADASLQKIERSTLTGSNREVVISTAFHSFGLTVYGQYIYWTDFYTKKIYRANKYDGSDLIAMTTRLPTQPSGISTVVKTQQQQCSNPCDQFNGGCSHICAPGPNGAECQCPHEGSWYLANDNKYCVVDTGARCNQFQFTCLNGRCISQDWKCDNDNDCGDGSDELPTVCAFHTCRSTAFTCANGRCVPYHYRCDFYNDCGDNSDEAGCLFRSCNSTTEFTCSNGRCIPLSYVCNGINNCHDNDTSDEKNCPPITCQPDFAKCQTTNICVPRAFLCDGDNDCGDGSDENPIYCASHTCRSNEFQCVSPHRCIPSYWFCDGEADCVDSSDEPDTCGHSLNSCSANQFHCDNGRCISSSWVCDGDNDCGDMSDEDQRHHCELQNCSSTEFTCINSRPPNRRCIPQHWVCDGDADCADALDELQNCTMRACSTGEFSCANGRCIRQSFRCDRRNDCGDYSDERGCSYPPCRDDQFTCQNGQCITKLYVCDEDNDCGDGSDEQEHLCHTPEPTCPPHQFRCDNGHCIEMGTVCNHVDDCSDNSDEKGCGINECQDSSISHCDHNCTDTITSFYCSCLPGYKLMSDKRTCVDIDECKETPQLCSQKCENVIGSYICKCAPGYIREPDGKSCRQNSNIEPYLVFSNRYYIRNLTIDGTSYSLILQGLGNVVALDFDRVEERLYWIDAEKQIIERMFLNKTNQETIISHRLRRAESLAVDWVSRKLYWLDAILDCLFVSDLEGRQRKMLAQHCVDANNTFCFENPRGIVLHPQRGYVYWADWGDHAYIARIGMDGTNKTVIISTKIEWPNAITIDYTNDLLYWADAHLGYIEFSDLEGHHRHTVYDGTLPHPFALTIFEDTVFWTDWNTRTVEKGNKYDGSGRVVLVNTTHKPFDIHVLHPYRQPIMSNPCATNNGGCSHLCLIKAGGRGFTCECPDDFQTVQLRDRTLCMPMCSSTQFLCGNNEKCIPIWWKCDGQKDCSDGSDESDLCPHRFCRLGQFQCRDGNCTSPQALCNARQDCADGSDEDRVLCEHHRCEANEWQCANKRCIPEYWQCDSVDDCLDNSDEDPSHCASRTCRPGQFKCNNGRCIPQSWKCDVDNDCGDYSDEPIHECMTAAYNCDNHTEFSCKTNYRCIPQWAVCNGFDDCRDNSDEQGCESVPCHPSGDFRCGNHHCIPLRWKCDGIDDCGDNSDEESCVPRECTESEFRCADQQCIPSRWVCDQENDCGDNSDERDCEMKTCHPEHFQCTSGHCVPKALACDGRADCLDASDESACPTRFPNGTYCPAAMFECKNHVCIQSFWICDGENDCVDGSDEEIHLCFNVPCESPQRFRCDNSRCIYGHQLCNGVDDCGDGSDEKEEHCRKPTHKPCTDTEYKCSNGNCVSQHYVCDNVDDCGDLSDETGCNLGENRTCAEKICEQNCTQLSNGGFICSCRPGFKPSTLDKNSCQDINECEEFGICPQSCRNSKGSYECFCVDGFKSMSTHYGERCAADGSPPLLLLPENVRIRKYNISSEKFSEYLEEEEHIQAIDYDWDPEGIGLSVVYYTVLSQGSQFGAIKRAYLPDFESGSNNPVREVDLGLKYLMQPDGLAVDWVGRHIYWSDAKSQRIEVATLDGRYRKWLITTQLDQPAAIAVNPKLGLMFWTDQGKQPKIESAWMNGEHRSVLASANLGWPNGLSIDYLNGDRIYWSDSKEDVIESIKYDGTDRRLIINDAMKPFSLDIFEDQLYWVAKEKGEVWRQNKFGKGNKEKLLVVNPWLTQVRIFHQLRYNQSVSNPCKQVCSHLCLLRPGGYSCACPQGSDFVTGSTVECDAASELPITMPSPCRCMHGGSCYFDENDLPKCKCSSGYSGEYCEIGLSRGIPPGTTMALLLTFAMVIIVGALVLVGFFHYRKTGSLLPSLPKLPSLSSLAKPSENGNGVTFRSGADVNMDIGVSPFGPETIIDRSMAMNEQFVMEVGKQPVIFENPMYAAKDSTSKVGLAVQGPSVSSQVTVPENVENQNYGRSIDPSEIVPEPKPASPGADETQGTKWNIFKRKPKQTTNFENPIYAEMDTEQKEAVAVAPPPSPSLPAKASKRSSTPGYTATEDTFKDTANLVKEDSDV
Assay: cell-based or functional assay

Row | Binder | percent of injected Ngal:Ent:59FeIII complex delivered to mouse urine in 3 hrs
1 | B1 | 23%
2 | B2 | ~100%
3 | B3 | < 0.1%

Molecular target: the molecule itself
Assay: Western blot of purified NGAL and of NGAL recovered from mouse urine, homodimer band against monomer band
Method: FIGS. 22A-22B. FIG. 22A. Left: Western blot of different species of NGAL. Wild type NGAL forms protein dimers (46-50 KDa) from monomers (at 23-25 KDa). Similarly the Mutant1 (K3 NGAL) forms dimers from monomers. However, Mutant2 (K3Cys) only forms monomers. Right. NGAL proteins (Wt, Mut1 and Mut2) were injected into mice, and the NGAL proteins in the urine (uWt=urinary wild-type protein; uMut1=urinary Mut1 K3 and uMut2=urinary Mut2 K3Cys) were collected at two different time points, and analyzed by Western Blot. For each protein (uWt, uMut1 and uMut2), the 1st lane on the Western blot represents proteins that were collected in the urine 20 min. after the injection and the 2nd lane on the Western blot represents proteins that were collected from the mouse at 180 min. after the injection. Very low levels of uWt appear in urine, whereas higher levels of both uMut1 and uMut2 appear in urine. uMut1 forms both monomers and dimers, whereas uMut2 only forms monomers. FIG. 22B. Mice were injected with NGAL proteins (Wt, Mut1 and Mut2) that were labeled with the dye Alexa Fluor™ 568 (Molecular Probes-Invitrogen), which covalently attaches to the proteins. […]

Row | Binder | binding result
4 | B1 | binds
5 | B2 | no binding

Molecular target: T1, mouse megalin
Assay: cell-based or functional assay
Remark: another data set of the same source

Row | Binder | Accumulation 3 hours after i.p. injection (%): Urine (Ngal-enterochelin-55Fe3+ complex, C57BL/6 mice)
6 | B1 | 19.6%
7 | B4 | 0.3%
8 | B5 | 0.13%
9 | B6 | 0.72%
10 | B7 | 0.44%
